Assay results: ChEMBL document CHEMBL1137666, “Biochemical Characterization of SFC-1, a class A carbapenem-hydrolyzing beta-lactamase” (Antimicrob Agents Chemother, 2007)

Columns and labels:
[1] = biological target: Carbapenem-hydrolyzing beta-lactamase KPC (Klebsiella pneumoniae, UniProt Q9F663); experiment: Inhibition of Klebsiella pneumoniae KPC-1 beta lactamase expressed in Escherichia coli DH5alpha by SDS-PAGE
[2] = substrate: CC(=O)OCC1=C(C(=O)O)N2C(=O)[C@@H](NC(=O)Cc3cccs3)[C@H]2SC1; experiment: (§1) Activity of Klebsiella pneumoniae KPC-1 beta lactamase expressed in Escherichia coli DH5alpha by SDS-PAGE
[3] = substrate: C[C@H]1[C@H](NC(=O)/C(=N\OC(C)(C)C(=O)O)c2csc(N)n2)C(=O)N1S(=O)(=O)O; experiment: as §1
[4] = substrate: CC(C)(O/N=C(\C(=O)N[C@@H]1C(=O)N2C(C(=O)[O-])=C(C[n+]3ccccc3)CS[C@H]12)c1csc(N)n1)C(=O)O; experiment: as §1
[5] = substrate: CO[C@@]1(NC(=O)Cc2cccs2)C(=O)N2C(C(=O)O)=C(COC(N)=O)CS[C@@H]21; experiment: as §1
[6] = substrate: C[C@@H](O)[C@H]1C(=O)N2C(C(=O)O)=C(S[C@@H]3CN[C@H](C(=O)N(C)C)C3)[C@H](C)[C@H]12; experiment: as §1
[7] = substrate: C[C@@H](O)[C@H]1C(=O)N2C(C(=O)O)=C(SCCNC=N)C[C@H]12; experiment: as §1
[8] = substrate: CC1(C)S[C@@H]2[C@H](NC(=O)[C@H](N)c3ccccc3)C(=O)N2[C@H]1C(=O)O; experiment: as §1
[9] = substrate: CO/N=C(\C(=O)N[C@@H]1C(=O)N2C(C(=O)O)=C(COC(C)=O)CS[C@H]12)c1csc(N)n1; experiment: as §1
[10] = substrate: CCN1CCN(C(=O)N[C@@H](C(=O)N[C@@H]2C(=O)N3[C@@H]2SC(C)(C)[C@@H]3C(=O)O)c2ccccc2)C(=O)C1=O; experiment: as §1
[11] = substrate: CC(=O)OCC1=C(C(=O)O)N2C(=O)[C@@H](NC(=O)Cc3cccs3)[C@H]2SC1; experiment: (§2) Ratio of Kcat to Km for Klebsiella pneumoniae KPC-1 beta lactamase expressed in Escherichia coli DH5alpha by SDS-PAGE
[12] = substrate: C[C@H]1[C@H](NC(=O)/C(=N\OC(C)(C)C(=O)O)c2csc(N)n2)C(=O)N1S(=O)(=O)O; experiment: as §2
[13] = substrate: CC(C)(O/N=C(\C(=O)N[C@@H]1C(=O)N2C(C(=O)[O-])=C(C[n+]3ccccc3)CS[C@H]12)c1csc(N)n1)C(=O)O; experiment: as §2
[14] = substrate: CO[C@@]1(NC(=O)Cc2cccs2)C(=O)N2C(C(=O)O)=C(COC(N)=O)CS[C@@H]21; experiment: as §2
[15] = substrate: C[C@@H](O)[C@H]1C(=O)N2C(C(=O)O)=C(S[C@@H]3CN[C@H](C(=O)N(C)C)C3)[C@H](C)[C@H]12; experiment: as §2
[16] = substrate: C[C@@H](O)[C@H]1C(=O)N2C(C(=O)O)=C(SCCNC=N)C[C@H]12; experiment: as §2
[17] = substrate: CC1(C)S[C@@H]2[C@H](NC(=O)[C@H](N)c3ccccc3)C(=O)N2[C@H]1C(=O)O; experiment: as §2
[18] = substrate: CO/N=C(\C(=O)N[C@@H]1C(=O)N2C(C(=O)O)=C(COC(C)=O)CS[C@H]12)c1csc(N)n1; experiment: as §2
[19] = substrate: CCN1CCN(C(=O)N[C@@H](C(=O)N[C@@H]2C(=O)N3[C@@H]2SC(C)(C)[C@@H]3C(=O)O)c2ccccc2)C(=O)C1=O; experiment: as §2

Work on `C[C@]1(Cn2ccnn2)[C@H](C(=O)O)N2C(=O)C[C@H]2S1(=O)=O` [TAZOBACTAM] yielded an IC50 [1] of 374 nM.

B1: Carbapenem-hydrolyzing beta-lactamase KPC (Klebsiella pneumoniae), Q9F663 (protein)
chain: MSLYRRLVLLSCLSWPLAGFSATALTNLVAEPFAKLEQDFGGSIGVYAMDTGSGATVSYRAEERFPLCSSFKGFLAAAVLARSQQQAGLLDTPIRYGKNALVPWSPISEKYLTTGMTVAELSAAAVQYSDNAAANLLLKELGGPAGLTAFMRSIGDTTFRLDRWELELNSAIPGDARDTSSPRAVTESLQKLTLGSALAAPQRQQFVDWLKGNTTGNHRIRAAVPADWAVGDKTGTCGVYGTANDYAVVWPTGRAPIVLAVYTRAPNKDDKHSEAVIAAAARLALEGLGVNGQ
Work on B1 yielded a Km [2] of 53 µM, a kcat [2] of 75 s⁻¹ and a Km [3] of 310 µM. It also gave a kcat [3] of 20 s⁻¹, a Km [4] of 94 µM and a kcat [4] of 0.1 s⁻¹. The Km [5] was 120 µM, the kcat [5] was 0.26 s⁻¹ and the Km [6] was 12 µM. The kcat [6] was 3 s⁻¹, the Km [7] was 81 µM and the kcat [7] was 12 s⁻¹. It also gave a Km [8] of 130 µM, a kcat [8] of 110 s⁻¹ and a Km [9] of 160 µM. For the same molecule, the kcat [9] was 14 s⁻¹, the Km [10] was 18 µM and the kcat [10] was 24 s⁻¹. The kcat/Km [11] was 1.4e+06 M⁻¹ s⁻¹, the kcat/Km [12] was 70000 M⁻¹ s⁻¹ and the kcat/Km [13] was 1000 M⁻¹ s⁻¹. It also gave a kcat/Km [14] of 2000 M⁻¹ s⁻¹, a kcat/Km [15] of 250000 M⁻¹ s⁻¹ and a kcat/Km [16] of 150000 M⁻¹ s⁻¹. It also gave a kcat/Km [17] of 850000 M⁻¹ s⁻¹, a kcat/Km [18] of 90000 M⁻¹ s⁻¹ and a kcat/Km [19] of 1.33e+06 M⁻¹ s⁻¹.
